Numbering of substitutions follows the chain as printed.
B1: 419A5F3 (antibody, V domains shown)
VH: DVQLVESGGGLVQPGGSRKLSCAASGFTFSGFGMHWIRQTPEKGLEWVAYISSDSRPIYYADTVKGRFTISRDNPKNTLFLQMTSLRSEDTAMYFCGRFYYGNSFDHWGQGTLVTVSA
VL: DIVMTQSPSFLTVTAGEKVTLSCRSSQSLLNSGNQRNYLTWYQQKPGQPPKLLIYWASTRESGVPDRFTGSGSGTDFTLTISSVQAEDRALYYCQNAYSFPLTFGTGTKLELR
B2: 420F12G8 (antibody, V domains shown)
VH: B1 VH with T28A, D54G, G97V
VL: B1 VL with L21M, S22T, S28N, R36K, Y55S, A86P, R89L, L102F, T106A, R113K
B3: 207F8G5 (antibody, V domains shown)
VH: QAYLQQSGAELVRSGASVKMSCKASGFTFTSYNIHWVKQTPGQGLEWIGYISPGNGGSNYNLKFKDKATLTSATSSSTAYMQISSLTSEDSAVYFCATGRGFAYWGQGTLVTVSA
VL: DIVMTQSPSSLTVTPGEKVTMSCKSSQSLFNSGNQKNYLIWYQQKPGQPPKLLIYRASTRDSGVPDRFTGSGSGTDFTLTISNVQAEDLAIYYCQNDYSYPLTFGAGTKLELK
B4: 420H7E6 (antibody, V domains shown)
VH: DVQLVESGGGLVQPGGSRKLSCVTSGFTFSSFGMHWIRQAPEKGLEWVAFISGGGSPIFYADSVKGRFTVSRDNPKNTLFLQMTGLRSEDTAMYFCARFYFGNSFAYWGQGTLVTVSA
VL: DIVMAQSPSSLTVTAGEKVTMNCRSSQSLFNSGNQKNYLTWYQQKPGQPPKLLIYWASTRESGVPVRFTGSGSGTDFTLTISSVQAEDLAVYYCQTGFSYPLTFGPGTKLELK
B5: 423C10E1 (antibody, V domains shown)
VH: B4 VH with I37V
VL: B4 VL with A5T, P49S, G97S, S99N
B6: 424G9G3 (antibody, V domains shown)
VH: QVQLQQSGPEVVRPGASVKMSCKGSGYTLNNFWMHWVKQRPGQGLEWIGMIDTSNGETRLNQIFKDKATLTVDKSSKTAYMQLSSLTSEDSAVYYCAPYGNFADWGQGTTLTVSS
VL: DVLLTQTPLSLPVSLGDQASISCRSSQSIVYGNGNTYLEWYLQKPGQSPKLLIYKVSSRFSGVPDRFSGSGSGTDFTLKITKVEAEDLGVYYCFQGSHVPFTFGSGTKLEIK
B7: 416F12F3 (antibody, V domains shown)
VH: DVQLVESGGGLVQPGGSRKLSCAASGFTFSSFGMHWVRQAPEKGLEWVAYISSGSSTIYYAHSVKGRFTISRDNPKNTLFLQMTSLGSEDTAMYYCARFYYGNSFAYWGQGTLVTVSA
VL: DIVMTQSPSSLTVTAGEKVTLSCKSSQSLLNSGNQKNYLTWYQQKPGQPPKMLIYWASTRESGVPDRFTGSGSGTDFTLTISSVQAEDLAVYYCQNAYTYPLTFGAGTRLELK
B8: 420H3H9 (antibody, V domains shown)
VH: B7 VH
VL: B7 VL with V91D
B9: 418D2F9 (antibody, V domains shown)
VH: B7 VH with S52N, S53T, H62D, S63T, G87R, F99I, A106V
VL: B7 VL with L21M, M52L, A97D, T99S, R109K
B10: 422E8F9 (antibody, V domains shown)
VH: B1 VH with D54G, K65Q, G97A, A118S
VL: B1 VL with L21M, R24K, R36K, R89L, T106A, R113K
B11: 422F4B6 (antibody, V domains shown)
VH: B7 VH with T28S, T57P, H62D, S63T, T69I, G87R, Y95F, F99I
VL: B7 VL with L21M, S28T, M52L, T99S, A106S, R109K
B12: 423B2B5 (antibody, V domains shown)
VH: B1 VH with G31S, I37V, T40A, D54G, R56S, A61S, T84S, G97A, F99I
VL: B7 VL with L21M, S22N, M52L, A97D, T99S, R109K
B13: 425C6D3 (antibody, V domains shown)
VH: B1 VH with D54G, K65Q, G97A, A118S
VL: B1 VL with L21M, R24K, R36K, R89L, T106A, R113K
B14: 418B8B10 (antibody, V domains shown)
VH: B1 VH with G31S, I37V, T40A, D54G, R56S, A61T, G97A
VL: B7 VL with T20S, L21M, L30F, S32R, N37S, K45R, M52L, A97N, T99I, R109K
B15: 418G6A5 (antibody, V domains shown)
VH: B7 VH with A23V, T57P, I58M, H62D, S63T, G87R, Y95F, F99I
VL: B7 VL with L21M, M52L, T99S, R109K
B16: 419B5G9 (antibody, V domains shown)
VH: B7 VH with S31T, S53G, S56T, Y59F, H62D, S63T, L86V, G87R, Q110P, A118T
VL: B7 VL with L21M, T99S, R109K
B17: 182D10F1 (antibody, V domains shown)
VH: QAYLQQSGAELVRSGASVKMSCKASGYTFSSYNMHWVKQTPGQGLEWIGYIYPGNGGTNYNQKFKGKATLTADTSSSTAYMQISSLTSEDSAVYFCLTGRGFTYWGQGTLVTVSA
VL: B3 VL with P15A, S22N, I40T, D61E, N83S, I91V, A106V
B18: 426D9F6 (antibody, V domains shown)
VH: B1 VH with D54G, G97A
VL: B1 VL with L21M, R24K, I81V, R89L, T106A, R113K
B19: 421H4G3 (antibody, V domains shown)
VH: B1 VH with T28S, M34L, D54G, G97A, Y101F, A118T
VL: B1 VL with L21M, S82N, R89L, T106A, R113K
B20: 203A6D5 (antibody, V domains shown)
VH: QVQLKQSGPGLVQPSQSLSITCTVSGFSLTRYGVHWVRQSPGKGLEWLGVIWSGGNTDYNAAFISRLNIRKDNSKSQVFFKMNSLKPNDTAIYYCARAAYFGNSFDYWGQGTTLTVSS
VL: B7 VL with T12P, L21M, M52L, E61D, A97N, T99I, R109K
B21: 429H6C5 (antibody, V domains shown)
VH: B7 VH with G44E, S63T, Q82R, A97V, A106V, Y107N
VL: B7 VL with V13A, L21M, T69A, T99I
B22: 425B3D5 (antibody, V domains shown)
VH: B1 VH with D54G, K65Q, G97A, A118S
VL: B1 VL with L21M, R24K, R36K, R89L, T106A, R113K
B23: 420D5H5 (antibody, V domains shown)
VH: B1 VH with F29L, D54G, A61V, K65E, G97A, A118S
VL: B1 VL with L21M, R24K, R36K, S82R, S83G, R89L, T106A, R113K
B24: 420G10G3 (antibody, V domains shown)
VH: B1 VH with P41A, D54G, K65Q, G97A
VL: B1 VL with L21M, R24K, R36K, R89L, T106A, R113K
B25: 419A10D4 (antibody, V domains shown)
VH: B1 VH with D54G, G97A
VL: B1 VL with L21M, R24K, I81V, R89L, T106A, R113K
B26: 426H6E11 (antibody, V domains shown)
VH: B1 VH with D54G, K65Q, G97A, A118S
VL: B1 VL with S7F, L21M, R24K, S28T, R36K, R89L, T106A, K109N, R113K
B27: 429G4E9 (antibody, V domains shown)
VH: B7 VH with T57P, H62D, S63T, G87R, Y95F, R98T
VL: B7 VL with L21M, S28T, P46S, M52L, T99S, L102V, A106S, R109K, L110V
B28: 417A6F11 (antibody, V domains shown)
VH: EVQLQQSGPELVKPGASMKISCKASGYSFTGYTMNWVKQSHGKNLEWIGLINPYNGGTSYNQKFKGKATLTVDKSSSTAYMELLSLTSEDSAVYYCARGDYWGQGTTLTVSS
VL: DIVMTQSPSSLTVTAGEKVTMSCKSSQSLLNSGNQKNYLTWYQQKPGQPPKLLIYWASTRESGVPDRFTGSGSGTDFTLTISSVQAEDLAVYYCQNDYSYPTFGAGTKLELK

Target: human Claudin18.2 (human)
Assay: cell-based or functional assay

CDC % Relative activity	CDC EC50	Binder
61.7%	2.79 µg/mL	B1
52.6%	3.27 µg/mL	B2
627%	0.305 µg/mL	B3
48.8%	3.9 µg/mL	B4
56.2%	3.39 µg/mL	B5
9.38%	20.3 µg/mL	B6
220%	0.784 µg/mL	B7
458%	0.416 µg/mL	B8
236%	0.73 µg/mL	B9
89.2%	2.14 µg/mL	B10
31.6%	6.03 µg/mL	B11
6.38%	29.9 µg/mL	B12
96.6%	2.08 µg/mL	B13
30.8%	5.6 µg/mL	B14
207%	0.83 µg/mL	B15
349%	0.494 µg/mL	B16
195%	0.811 µg/mL	B17
32.4%	6.21 µg/mL	B18
65.9%	2.89 µg/mL	B19
571%	0.336 µg/mL	B20
331%	0.607 µg/mL	B21
63%	3.02 µg/mL	B22
78.3%	2.2 µg/mL	B23
72.4%	2.63 µg/mL	B24
91.5%	1.88 µg/mL	B25
80%	2.51 µg/mL	B26
164%	1.23 µg/mL	B27
440%	0.392 µg/mL	B28
